Results published in US20250019450A1 (DIAGONAL THERAPEUTICS, published 2025).
One block for each binder: values may come before it.

Target: human IL-12 receptor (IL-12Rβ1 and IL-12Rβ2) on HEK-Blue IL-12 cells (human, UniProt P42701 24-662; Q99665 24-862)
Assay: cell-based or functional assay

Sequence of human IL-12 receptor (IL-12Rβ1 and IL-12Rβ2) on HEK-Blue IL-12 cells (Q99665 24-862, chain 2 of 2, other chains not shown): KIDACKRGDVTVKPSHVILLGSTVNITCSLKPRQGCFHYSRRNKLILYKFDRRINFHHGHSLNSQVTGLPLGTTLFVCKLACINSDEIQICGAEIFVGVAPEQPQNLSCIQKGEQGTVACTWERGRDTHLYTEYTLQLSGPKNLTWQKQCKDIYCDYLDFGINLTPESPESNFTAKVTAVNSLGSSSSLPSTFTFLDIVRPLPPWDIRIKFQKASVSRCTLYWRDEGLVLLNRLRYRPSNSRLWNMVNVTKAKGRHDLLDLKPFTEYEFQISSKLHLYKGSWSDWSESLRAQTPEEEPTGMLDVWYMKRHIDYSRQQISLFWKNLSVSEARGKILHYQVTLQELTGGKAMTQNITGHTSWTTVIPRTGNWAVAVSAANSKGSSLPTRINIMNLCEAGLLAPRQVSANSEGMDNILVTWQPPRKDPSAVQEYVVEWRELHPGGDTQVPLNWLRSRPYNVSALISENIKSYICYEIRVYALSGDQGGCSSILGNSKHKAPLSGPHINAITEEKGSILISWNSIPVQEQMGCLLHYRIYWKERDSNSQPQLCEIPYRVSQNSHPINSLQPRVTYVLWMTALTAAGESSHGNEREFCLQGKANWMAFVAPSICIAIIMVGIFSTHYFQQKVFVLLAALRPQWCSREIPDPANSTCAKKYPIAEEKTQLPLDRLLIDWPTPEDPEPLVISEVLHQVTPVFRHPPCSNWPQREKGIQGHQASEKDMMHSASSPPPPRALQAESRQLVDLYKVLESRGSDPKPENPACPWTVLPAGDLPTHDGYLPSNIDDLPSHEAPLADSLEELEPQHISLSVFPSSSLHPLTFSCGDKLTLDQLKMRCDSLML

Max Absorbance: 0.17
B1: DGL398 (bispecific antibody, human IgG1, kappa)
heavy 1: not shown
heavy 2: QVQLVESGGGLVQAGGSLRLSCAASGRTFSSYAMGWFRQAPGKEREFVSAISWSGLSTYYVESVQGRFTISRDNAKNTVYLQMNSLKPEDTAVYYCAASRIYTNYVARSYEYDDWGQGTQVTVEPKSSDKTHTCPPCPAPEAAGAPSVFLFPPKPKDTLMISRTPEVTCVVVDVSHEDPEVKFNWYVDGVEVHNAKTKPREEQYNSTYRVVSVLTVLHQDWLNGKEYKCKVSNKALPAPIEKTISKAKGQPREPQVCTLPPSRDELTKNQVSLSCAVKGFYPSDIAVEWESNGQPENNYKTTPPVLDSDGSFFLVSKLTVDKSRWQQGNVFSCSVMHEALHNRFTQKSLSLSPG
light: DIQLTQSPSFLSASVGDRVTITCRASQGISSYLAWYQQQPGKPPKLLIYAASTLHSGVPSRFSGSGSGTEFTLTISSLQPEDFATYYCQQLNRYPYTCGQGTKLEIKRTVAAPSVFIFPPSDEQLKSGTASVVCLLNNFYPREAKVQWKVDNALQSGNSQESVTEQDSKDSTYSLSSTLTLSKADYEKHKVYACEVTHQGLSSPVTKSFNRGEC

EC50: > 0.1 µM
Max Absorbance: 0.58
B2: DGL584 (bispecific antibody, V domains shown)
V domain 1: QVQLQESGGGLVQAGGSLRLSCAASGSIASINAMGWYRQAPGKQRDFVARIQLSGSTNYAHSVRGRFTISRDNAKNTVYLQMNNLKPEDTAVYVCAASNTGSLYGLRNYWGQGTQVTVEP
V domain 2: QVQLVESGGGLVQPGGSLRLSCAASGFTFSSKAMHWFRQAPGKGLEWVSSINSGGAITYYKDSVKGRFTVSRDNAKNILYLEMNSLKPEDTALYYCATDTDGRTRGQGTQVTVEP

EC50: > 0.1 µM
Max Absorbance: 0.69
B3: DGL465 (bispecific antibody, V domains shown)
V domain 1: QVQLVESGGGLVQAGGSLRLSCAASGRAFSRYSMGWFRQAPGKEREFVAANYWSNGWTDYADTVKGRFSISRDNAKNTVYLQMNSLKPEDTAVYYCAGRSSSIPSADVVGYDYWGQGTQVTVEP
V domain 2: QVQLVESGGGLVQPGGSLRLSCAASGFTFEPYDMSWFRQAPGKGPEWVSAIDKGGGAGATYYADSVKGRFTISRDNAKKTLYLQMKSLKPEDTAVYYCAITAGPYSDSTPRVAYRGEGTQVTVEP

EC50: 8.1e-09 M (implied)
Max Absorbance: 0.56
B4: DGL499 (bispecific antibody, V domains shown)
V domain 1: EVQLVESGGGLVQAGGSLRLSCAASGLTFRNYAMAWFRQAPGKEREFVAGITWGGGLTHYVDSVKGRFTISRDNGKNTVYLQMNSLKSEDTAVYYCAGKTQGSTWYHLTPDGYDYWGQGTQVTVEP
V domain 2: B3 V domain 2

EC50: 9.7e-09 M (implied)
Max Absorbance: 0.54
B5: DGL484 (bispecific antibody, V domains shown)
V domain 1: QVQLVESGGGLVQAGGSLRLSCAASARIFNSYAVAWFRQTPGKEREFVASISWSGGSTNYADSVKGRFTISRDNAKNTVFLQMNSLKPADTAVYYCAADRNYYPSVLGKYTYWGQGTQVTVEP
V domain 2: B3 V domain 2

EC50: 4.4e-10 M (implied)
Max Absorbance: 0.58
B6: DGL524 (bispecific antibody, V domains shown)
V domain 1: EVQLVESGGGLVQPGGSLRLFCAASRSIFNINIMGWYRQAPGKQREWLASITSGGSTFYADSVKDRFTISRDSVKNTVYLQMNSLKPEDTAAYYCNRYRSVPLNTVYPWGQGTLVTVEP
V domain 2: QVQLVESGGGLVQAGGSLRLSCAASGRIFSAYRMGWFRQAPGKEREFVAGITWRGQTTYYAASVKGRFTISKDNAKKTVYLQMNSLKPEETAVYYCAVETNGLGRWDRPSEYDYWGQGTQVTVEP

EC50: 1.2e-09 M (implied)
Max Absorbance: 0.52
B7: DGL462 (bispecific antibody, V domains shown)
V domain 1: EVQLVESGGGLVQPGGSLRLSCAASGFTFQNYAMSWLRKAPGEGLEWVSVINSGGGSTLYADSVKGRFTISRDNAKNTLYLQMHSLKSEDTAVYFCAKRRDDSTFGSLLYTHRGQGTQVTVEP
V domain 2: B6 V domain 2

EC50: 5.9e-10 M (implied)
Max Absorbance: 0.55
B8: DGL537 (bispecific antibody, V domains shown)
V domain 1: QVQLVESGGGLVQAGGSLRLSCLASGRTSNYFMGWFRQAPGKEREFVAAISRSGGGTWYADSVKGRFAISRDNAKNTVNLQMNSLKREDTAVYYCAADRRTGTSVYTVDEYDYWGQGTQVTVEP
V domain 2: B6 V domain 2

EC50: > 0.1 µM
Max Absorbance: 0.59
B9: DGL545 (bispecific antibody, V domains shown)
V domain 1: QVQLVESGGGAVQAGGSLRLSCAASGLTSRHYVMAWFRQAPGIEREFVASIWWGGSTYYADSVKDRFTISRDNAENTVYLQMNSLKPEDTAVYRCAVGTKIGTMGPRYDYWGQGTQVTVEP
V domain 2: QVQLVESGGGLVQAGGSLRLSCAASGRTFSSYAMGWFRQAPGKEREFVSAISWSGLSTYYVESVQGRFTISRDNAKNTVYLQMNSLKPEDTAVYYCAASRIYTNYVARSYEYDDWGQGTQVTVEP

Max Absorbance: 0.17
B10: DGL408 (bispecific antibody, human IgG1, kappa)
heavy 1: not shown
heavy 2: QVQLVESGGGLVQPGGSLRLSCAASGFTFSNYAMSWVRQAPGKGLEWVSAINSDGTSTSYADSVKGQFTISRDNAKNTLYLQMNSLKPEDTAVYYCTKWEGDTDSDYKFKDYWGQGTQVTVEPKSSDKTHTCPPCPAPEAAGAPSVFLFPPKPKDTLMISRTPEVTCVVVDVSHEDPEVKFNWYVDGVEVHNAKTKPREEQYNSTYRVVSVLTVLHQDWLNGKEYKCKVSNKALPAPIEKTISKAKGQPREPQVCTLPPSRDELTKNQVSLSCAVKGFYPSDIAVEWESNGQPENNYKTTPPVLDSDGSFFLVSKLTVDKSRWQQGNVFSCSVMHEALHNRFTQKSLSLSPG
light: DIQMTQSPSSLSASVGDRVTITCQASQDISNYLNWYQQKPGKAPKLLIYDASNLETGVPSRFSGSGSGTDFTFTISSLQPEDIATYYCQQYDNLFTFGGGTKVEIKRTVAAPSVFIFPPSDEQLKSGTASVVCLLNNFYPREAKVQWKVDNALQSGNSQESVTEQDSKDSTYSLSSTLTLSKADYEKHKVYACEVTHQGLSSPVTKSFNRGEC

EC50: > 0.1 µM
Max Absorbance: 0.64
B11: DGL571 (bispecific antibody, V domains shown)
V domain 1: QVQLVESGGGLVQAGGSLRLSCAASRSISSFNEMAWYRQAPGEQRELVATIVSTVGFTNYADSVKGRFTISRDNAKNTVYLQMNSLKAEDTAVYYCNARRISTDYWGQGTQVTVEP
V domain 2: QVQLVESGGGLVQPGGSLRLSCAASGFTFSNYAMSWIRQGPERGFEWVSRINSGGGTTSYADSVKGRFTISRDNAKNTLYLQMNSLKPEDTAVYYCAKHSHPDYSSNYYRPGQGTQVTVEP

EC50: > 0.1 µM
Max Absorbance: 0.54
B12: DGL527 (bispecific antibody, V domains shown)
V domain 1: EVQLVESGGGLVQPGGSLTLSCTASGFRFSDRSMGWYRQAPGKQRELVAAITVGGSTNYADSVKGRFTISRDNAKNTVYLQMNSLKPEDTALYYCNRRYPPDDYWGQGTQVTVEP
V domain 2: QVQLVESGGGLVRPGGSLRLSCAASGFTFSSNGMHWFRQAPGKGLEWVSSIGSGGTSIYYADSVKGRFTISRDNAKNTLYLQMNSLKSDDTAVYYCSKEVTGATRGQGTQVTVEP

EC50: > 0.1 µM
Max Absorbance: 0.48
B13: DGL599 (bispecific antibody, human IgG1, V domains shown)
V domain 1: EVQLVESGGGLVQAGGSLRLSCAASGSKFSFNAMGWYRQTPGKQRELVAIIINGDMINYADSVKGRFTISRDNAKNTMYLQMNSLKPEDTAVYYCKMTRYVYDYWGQGTQVTVEP
V domain 2: QVQLVQSGAEVKKPGASVRVSCKASGYTFTSYYIHWVRQAPGQGLEWMGIINPSGGSTSYAQKFQGRVTMTRDTSTTTVYMELSSLRSEDTAVYYCAKSNWAYAFDIWGQGTMVTVSS
